{"source": "paper doi:10.1101/2021.01.30.428974", "key": {"[1]": {"molecular_target": "Murine polyomavirus VP1 with the putative nuclear localisation signal deleted (Murine polyomavirus) (UniProt P03090)", "assay": "co-sedimentation"}, "[2]": {"molecular_target": "wild-type Murine polyomavirus VP1 (Murine polyomavirus) (UniProt P03090)", "assay": "co-sedimentation"}}}
{"substance": "VP2C-GFP", "values": [{"measurement": "stoichiometry N (GFP per ΔVP1 VLP)", "setting": "[1]", "result": 72}, {"measurement": "stoichiometry N (GFP per wtVP1 VLP)", "setting": "[2]", "result": 59}]}
